# Test results: publication doi:10.1101/2023.11.20.567881
# Tests used:
# [1] = target: yeast surface-displayed DARPin 3G146 variant 2-H3 (G237S); test: flow cytometry on cells
# [2] = target: yeast surface-displayed DARPin 3G146 variant 2-G4 (G150S); test: flow cytometry on cells
substance,measurement,setting,value
EGFP-His6 (from UniProt P42212 1-238) (natural protein),fold improvement of apparent binding affinity over 3G146,[1],28 fold
same,fold improvement of apparent binding affinity over 3G146,[2],8 fold
